In patent US20180148718, “COMPOUNDS AND METHODS FOR INCREASING ANTISENSE ACTIVITY” (Ionis Pharmaceuticals, Inc., published 2018):

Molecular target: Hsp90alpha (UniProt P07900 P07900:2-732)
Assay: filter; nitrocellulose double-filter binding, printed as binding constant
Settings: label: 5' biotin-TEG, radiolabel
Protocol: The protein-bound ASOs were transferred to a nitrocellulose membrane and the signal intensity was determined. As a control, no significant binding was found for a PS/DNA ASO. The specific binding of protein-bound ASO to the nitrocellulose membrane was confirmed using a double-filter binding assay for PS/cEt and PS/LNA ASOs. The unbound ASOs were attracted using a Hybond-N+Nylon membrane under the Hybond ECL nitrocellulose membrane.

With CTGCTAGCCTCTGGATTTGA (XNA, 5-10-5 gapmer, LNA wings 1-5 and 16-20, 2'-deoxy gap, all C 5mC, full PS) [Isis 586184 (PS/LNA)] the Kd was 17.7 nM.
